Consider four molecules from US20230381350A1 (PRECIRIX N V, published 2023).

The target in experiment [1] is T1, human FAP recombinant protein (human, UniProt Q12884 26-760).
T1 construct: The protein was biotinylated with sulfo-NHS-SS-biotin for bio-layer interferometry; also called extracellular domain of human FAP with N-terminal His6-tag
T1 sequence: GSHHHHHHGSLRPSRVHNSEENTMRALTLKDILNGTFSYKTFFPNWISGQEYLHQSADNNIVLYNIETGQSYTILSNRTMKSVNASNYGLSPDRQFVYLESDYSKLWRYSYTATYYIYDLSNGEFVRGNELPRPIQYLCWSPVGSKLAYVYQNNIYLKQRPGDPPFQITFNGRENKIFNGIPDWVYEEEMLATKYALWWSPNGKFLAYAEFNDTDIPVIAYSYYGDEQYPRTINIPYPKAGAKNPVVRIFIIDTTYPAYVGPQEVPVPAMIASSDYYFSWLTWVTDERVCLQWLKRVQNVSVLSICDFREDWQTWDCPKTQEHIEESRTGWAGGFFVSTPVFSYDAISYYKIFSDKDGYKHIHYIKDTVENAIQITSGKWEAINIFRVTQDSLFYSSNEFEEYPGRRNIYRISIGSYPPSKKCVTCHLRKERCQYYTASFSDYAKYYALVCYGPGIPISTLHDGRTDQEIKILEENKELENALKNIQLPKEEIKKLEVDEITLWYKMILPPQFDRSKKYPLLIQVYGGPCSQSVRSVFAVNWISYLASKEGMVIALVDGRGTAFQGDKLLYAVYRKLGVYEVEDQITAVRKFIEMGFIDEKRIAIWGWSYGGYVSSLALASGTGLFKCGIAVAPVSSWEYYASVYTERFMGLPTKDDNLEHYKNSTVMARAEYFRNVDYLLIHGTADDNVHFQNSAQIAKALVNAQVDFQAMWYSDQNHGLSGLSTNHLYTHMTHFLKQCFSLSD
Description: bio-layer interferometry (Octet RED96), biotinylated human FAP on streptavidin sensor, kinetic titration, 25 °C. As for the experimental part:
(§1) The kinetic parameters of antigen binding by purified VHHs were determined via bio-layer interferometry with an Octet RED96 instrument (ForteBio). The assay was performed at 25° C. with shaking at 1000 rpm. Streptavidin coated SA sensors were equilibrated in assay buffer (HBS supplemented with 0.5% BSA, 0.1% Tween), before loading for 5 min with the biotinylated FAP recombinant protein at a concentration of 5 μg/ml. His₆-tagged VHHs were analyzed in a threefold serial dilution from 30 nM to 0.4 nM in assay buffer (except for VHH B3 binding murine FAP recombinant protein, for which a fivefold serial dilution from 1000 nM to 1.6 nM was employed). First the baseline was measured for 180 s in assay buffer, followed by 5 subsequent association phases of 180 s with the VHH preparations in increasing order of concentration, with 75 s intermediate dissociation phases in assay buffer in between, and a final dissociation phase in assay buffer of 30 min. In every assay a reference sensor loaded with FAP recombinant protein was included that was incubated in assay buffer during the association phases.
(§2) Binding curves were exported and analyzed using the BIAevaluation analysis software (GE Healthcare). First the y-axes of the different curves were aligned to the median of the last 5 s of the baseline measurement. Subsequently, the sensorgram of the reference sensor was subtracted from all other sensorgrams. The resulting binding curve was fitted using a general fit with the ‘kinetic titration with drift’ binding model (1:1 (antigen:analyte) model; Karlsson, R. et al (2006), Analyzing a kinetic titration series using affinity biosensors. Analytical Biochemistry 349: 136-147), with Rmax fitted global, RI local and drift set to 0.
(§3) Table 7 gives an overview of the kinetic parameters of antigen binding for His₆-tagged VHHs B1, B2, B3 and B4 (SEQ ID NO: 21-24), as determined by bio-layer interferometry with biotinylated human or murine FAP recombinant protein that was loaded on the sensor.
A general note: In BLI a coated tip is dipped into the sample, and binding shifts an interference pattern.

Experiment [2] concerns the target T2, murine FAP recombinant protein (murine, UniProt P97321 26-761).
T2 construct: The protein was biotinylated for bio-layer interferometry; also called extracellular domain of murine FAP with N-terminal His6-tag
T2 sequence: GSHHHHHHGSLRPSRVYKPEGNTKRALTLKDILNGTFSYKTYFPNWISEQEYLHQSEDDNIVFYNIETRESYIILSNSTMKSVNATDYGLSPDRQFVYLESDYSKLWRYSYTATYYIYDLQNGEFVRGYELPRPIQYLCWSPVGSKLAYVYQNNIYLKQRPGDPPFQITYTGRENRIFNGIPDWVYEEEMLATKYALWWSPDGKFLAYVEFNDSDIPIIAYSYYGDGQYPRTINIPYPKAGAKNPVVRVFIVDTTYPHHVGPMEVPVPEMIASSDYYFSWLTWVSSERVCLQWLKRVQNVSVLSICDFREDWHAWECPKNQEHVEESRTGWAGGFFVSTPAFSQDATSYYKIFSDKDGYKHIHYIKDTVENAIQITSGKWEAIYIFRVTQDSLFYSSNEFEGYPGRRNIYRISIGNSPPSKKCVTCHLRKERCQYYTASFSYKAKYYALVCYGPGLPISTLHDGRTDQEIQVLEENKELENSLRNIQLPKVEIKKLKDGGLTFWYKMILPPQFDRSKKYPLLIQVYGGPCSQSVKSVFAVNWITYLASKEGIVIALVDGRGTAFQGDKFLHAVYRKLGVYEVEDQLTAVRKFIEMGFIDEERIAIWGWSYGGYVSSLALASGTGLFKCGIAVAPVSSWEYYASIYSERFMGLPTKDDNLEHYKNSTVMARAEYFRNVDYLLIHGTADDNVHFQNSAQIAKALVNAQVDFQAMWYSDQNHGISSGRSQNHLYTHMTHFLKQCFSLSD
Description: bio-layer interferometry (Octet RED96), biotinylated murine FAP on streptavidin sensor, kinetic titration, 25 °C. As for the experimental part:
as §1, §2, §3

Experiment [3] deals with T3, human FAP expressed on cells (human, UniProt Q12884 1-760).
T3 construct: also called human FAP cell surface protein; human FAP receptor
T3 sequence: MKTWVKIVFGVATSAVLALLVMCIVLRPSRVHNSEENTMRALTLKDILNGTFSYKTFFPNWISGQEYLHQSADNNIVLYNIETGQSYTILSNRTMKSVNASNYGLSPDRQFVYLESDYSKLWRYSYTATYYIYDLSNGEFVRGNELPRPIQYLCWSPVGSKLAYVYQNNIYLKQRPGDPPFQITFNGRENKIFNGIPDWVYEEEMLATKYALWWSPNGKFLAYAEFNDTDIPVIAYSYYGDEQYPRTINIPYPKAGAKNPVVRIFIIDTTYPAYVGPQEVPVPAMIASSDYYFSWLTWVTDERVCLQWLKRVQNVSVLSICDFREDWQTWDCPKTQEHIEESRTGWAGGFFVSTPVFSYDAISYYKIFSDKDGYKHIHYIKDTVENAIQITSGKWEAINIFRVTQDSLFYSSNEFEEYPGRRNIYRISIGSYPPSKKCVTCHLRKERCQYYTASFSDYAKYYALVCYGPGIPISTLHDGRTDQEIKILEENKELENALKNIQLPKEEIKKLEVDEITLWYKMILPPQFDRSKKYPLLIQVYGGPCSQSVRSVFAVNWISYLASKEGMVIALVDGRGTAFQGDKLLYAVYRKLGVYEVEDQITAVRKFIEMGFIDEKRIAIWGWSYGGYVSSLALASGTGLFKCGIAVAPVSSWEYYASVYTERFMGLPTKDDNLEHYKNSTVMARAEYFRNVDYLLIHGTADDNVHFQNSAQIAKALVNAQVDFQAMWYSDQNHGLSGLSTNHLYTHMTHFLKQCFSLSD
Description: saturation binding of 99mTc-labelled VHH on human FAP-expressing GM05389 cells (mean ± SD, n = 3). As for the experimental part:
(§4) Next, we describe the in vitro and in vivo human and murine FAP binding potential of different VHHs after radiolabelling with the diagnostic radioisotope ^99mTc. […] His₆-tagged human/murine FAP-targeting VHHs were radiolabelled with the diagnostic radioisotope ^99mTc, according to the radiochemical procedure described in Example 3.
(§5) Next, the different cell lines were incubated with serial dilutions with concentrations ranging from 0 to 300 nM of the different ^99mTc-labelled His₆-tagged VHHs. A 100-fold excess of the corresponding unlabeled VHH was added in parallel to saturate the human or murine FAP proteins on the cancer cell surface, to assess non-specific binding. The resulting EC50 values for each of the VHHs are depicted in Table 8. […] We confirmed that ^99mTc-labeled VHH B4 only binds murine FAP cell surface protein, while VHH B3 only binds human FAP cell surface molecules in vitro.

For experiment [4], the target named is T3, human FAP expressed on cells. As to the kind of experiment: saturation binding of 99mTc-labelled VHH on human FAP-expressing HEK-293 cells (mean ± SD, n = 3). As for the experimental part: as §4, §5
Experiment [5] has as its target T4, murine FAP expressed on cells (murine, UniProt P97321 1-761).
T4 construct: also called murine FAP cell surface protein
T4 sequence: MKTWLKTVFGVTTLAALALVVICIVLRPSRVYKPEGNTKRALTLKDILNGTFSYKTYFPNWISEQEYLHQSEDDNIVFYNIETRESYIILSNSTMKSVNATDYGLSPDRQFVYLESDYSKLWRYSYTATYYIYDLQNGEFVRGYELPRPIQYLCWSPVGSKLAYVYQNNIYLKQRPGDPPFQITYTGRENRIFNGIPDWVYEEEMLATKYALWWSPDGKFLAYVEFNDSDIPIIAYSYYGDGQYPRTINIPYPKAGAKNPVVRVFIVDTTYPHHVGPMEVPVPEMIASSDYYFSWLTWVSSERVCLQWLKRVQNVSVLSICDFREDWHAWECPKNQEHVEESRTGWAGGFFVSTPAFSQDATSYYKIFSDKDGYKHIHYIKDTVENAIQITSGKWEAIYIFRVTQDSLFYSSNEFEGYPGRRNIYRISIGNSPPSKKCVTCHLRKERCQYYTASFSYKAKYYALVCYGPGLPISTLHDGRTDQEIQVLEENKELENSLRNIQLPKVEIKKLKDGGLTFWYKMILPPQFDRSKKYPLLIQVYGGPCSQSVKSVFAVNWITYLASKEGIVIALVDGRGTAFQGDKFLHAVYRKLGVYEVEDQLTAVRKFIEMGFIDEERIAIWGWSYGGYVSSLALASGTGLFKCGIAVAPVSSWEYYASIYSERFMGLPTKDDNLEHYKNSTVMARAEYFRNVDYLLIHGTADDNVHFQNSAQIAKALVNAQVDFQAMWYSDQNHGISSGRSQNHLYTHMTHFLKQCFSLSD
Description: saturation binding of 99mTc-labelled VHH on murine FAP-expressing HEK-293 cells (mean ± SD, n = 3). How it is done:
as §4, §5

B1: His6-tagged VHH B2 (VHH)
VHH: DVQLVESGGGLVQAGGSLRLSCAVSGSISSANSMGWYRQAPGKQRDVVAGLTTGGRSHYADSVKGRFTISRDNAKNTVYLQMNSLKAEDTAVYYCNLWPPVQGYWGQGTQVTVSS
notes: Purified, unlabelled; used in bio-layer interferometry; also called B2 with His6-tag
For B1, in experiment [1], the dissociation constant (Kd) (as a rule, the concentration at which binding is half-saturated) was found to be 0.0744 nM; the koff – broadly, the rate constant with which the complex falls apart – was 3.1e-05 s⁻¹; the on-rate constant (kon) (commonly the second-order rate constant of association) is 420000 M⁻¹ s⁻¹. Moreover, in experiment [2], the dissociation constant Kd turned out to be 24.3 nM, the off-rate (koff) turned out to be 0.0082 s⁻¹ and the kon amounted to 340000 M⁻¹ s⁻¹.

B2: 99mTc-labeled His6-tagged VHH B2 (VHH)
VHH: B1 VHH
modifications: [99mTc(H2O)3(CO)3] complexed at the His6-tag
notes: also called 99mTc-B2
Regarding B2, the half-maximal effective concentration (EC50) (commonly the concentration needed to bring the measured effect to its halfway point) was determined as 3.2 nM in experiment [3], 13 nM in experiment [4] and 139 nM in experiment [5].

B3: His6-tagged VHH B4 (VHH)
VHH: DVQLVESGGGLVQVGGSLRLSCVASGFTFSSYYMSWVRQAPGKGLEWVASIYADGDMTYYADSVRGRFTISRDNAKNTLYLQMNSLKSEDTAVYYCAKDPLPPYHVNQGTQVTVSS
notes: Purified, unlabelled; used in bio-layer interferometry; also called B4 with His6-tag
Turning to B3, in experiment [2], the Kd turned out to be 0.512 nM, the dissociation rate constant (koff) was determined as 0.00056 s⁻¹ and the kon was 1.1e+06 M⁻¹ s⁻¹.

B4: 99mTc-labeled His6-tagged VHH B1 (VHH)
VHH: DVQLVESGGGLVQPGGSLRLSCVASGRLSSSNSMAWYRQVPGKRRELVAGITGGGETNYADFVGGRFTISRDNAKNGLYLQLNGLKPEDTAAYYCNFWPPLINYWGQGTQVTVSS
modifications: [99mTc(H2O)3(CO)3] complexed at the His6-tag
notes: also called 99mTc-B1
Turning to B4, the concentration for a half-maximal effect (EC50) in experiment [3] came out at 0.5 nM; in experiment [4], 0.6 nM; in experiment [5] it was 5.8 nM.
